Measured values published in US20190233539A1.

Columns and labels:
Test in all cases: BIAcore SPR, koff against wild-type Fc
CD32B (FcγRII-B) = CD32B (FcγRII-B) (UniProt P31994)
[1] = molecular target: CD16A with Val at position 158 (human) (UniProt P08637)
CD32A^H = CD32A^H (UniProt P12318)
[2] = molecular target: CD16A with Phe at position 158 (human) (UniProt P08637)
Sequence of CD16A with Phe at position 158 (human) (P08637 17-208 limits assumed): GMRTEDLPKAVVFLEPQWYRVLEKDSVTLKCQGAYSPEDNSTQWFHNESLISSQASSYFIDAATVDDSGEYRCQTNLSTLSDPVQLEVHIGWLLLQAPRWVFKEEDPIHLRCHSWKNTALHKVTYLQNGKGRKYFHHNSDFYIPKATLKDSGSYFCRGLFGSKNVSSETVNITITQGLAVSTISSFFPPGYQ

Sequence of CD32B (FcγRII-B) (P31994 43-217 limits assumed): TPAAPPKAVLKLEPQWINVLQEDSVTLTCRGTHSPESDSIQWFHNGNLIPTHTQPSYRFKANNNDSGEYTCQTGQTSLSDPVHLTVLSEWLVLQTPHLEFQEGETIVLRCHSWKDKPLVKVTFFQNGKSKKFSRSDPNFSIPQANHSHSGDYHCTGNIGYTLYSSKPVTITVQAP
Sequence of CD32A^H (P12318 34-217 limits assumed): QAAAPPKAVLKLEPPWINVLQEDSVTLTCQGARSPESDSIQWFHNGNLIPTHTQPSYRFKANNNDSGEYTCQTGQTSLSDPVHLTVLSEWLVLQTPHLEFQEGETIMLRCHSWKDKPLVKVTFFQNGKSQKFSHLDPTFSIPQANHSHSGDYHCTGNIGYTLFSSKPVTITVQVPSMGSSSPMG
Sequence of CD16A with Val at position 158 (human) (P08637 17-208 F176V limits assumed): as the sequence (P08637 17-208 limits assumed) above, with F160V counted along it

Substance	WT koff/mutant koff (CD32B (FcγRII-B))	WT koff/mutant koff [1]	WT koff/mutant koff (CD32A^H)	WT koff/mutant koff [2]
Fc mutant 1 (F243L)	0.8	4.8	0.6	–
Fc mutant 4 (S298N)	0.2	–	–	–
Fc mutant 7 (A330V)	0.3	0.6	0.4	1.2
Fc mutant 8 (P396L)	2.6	1.3	1.6	–
Fc mutant 9 (F243L, P396L)	1.6	–	1.5	–
Fc mutant 13 (F243L, R292P, V305I)	0.1	2.6	0.2	1.4
Fc mutant 16 (F243L, R292P, Y300L, P396L)	1.1	10.1	1.7	5.6
Fc mutant 17 (F243L, R292P, V305I, P396L)	0.4	4	0.8	2.3

Second part, the substance after the results:

WT koff/mutant koff (CD32B (FcγRII-B))	WT koff/mutant koff [1]	WT koff/mutant koff (CD32A^H)	WT koff/mutant koff [2]	Substance
0.4	1.3	2.2	–	Fc mutant 2 (D270E)
0.3	2.4	0.7	1.6	Fc mutant 3 (R292P)
1.2	–	2.9	1.2	Fc mutant 5 (Y300L)
1.2	0.9	1.3	0.6	Fc mutant 6 (V305I)
0.2	4	0.5	–	Fc mutant 10 (F243L, R292P)
0.4	–	0.8	–	Fc mutant 11 (R292P, V305I)
0.6	7.4	1	4.6	Fc mutant 12 (F243L, R292P, Y300L)
0.4	6.3	1.4	–	Fc mutant 14 (F243L, R292P, P396L)
0.9	1.9	1.5	1.9	Fc mutant 15 (R292P, V305I, P396L)
1.4	10.1	3.2	8.3	Fc mutant 18 (F243L, R292P, Y300L, V305I, P396L)
